T1: Duck egg lysozyme (DEL), D65N + N103D double mutant of the DEL-II isoform (Anas platyrhynchos, DEL-II double mutant, strain)
T1 construct: duck egg lysozyme, DEL-II isoform, D65N + N103D double mutant; differs from HEL3X at 25 amino acids; source: Pichia pastoris, secreted, purified from culture supernatant (ion exchange)
T1 chain: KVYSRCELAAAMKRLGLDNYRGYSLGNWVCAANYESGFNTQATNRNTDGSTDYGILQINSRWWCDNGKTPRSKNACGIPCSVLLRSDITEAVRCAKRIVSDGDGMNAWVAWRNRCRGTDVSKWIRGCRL


Biological target: T1, Duck egg lysozyme (DEL), D65N + N103D …
Assay: BLI; BLItz (ForteBio); biotinylated Hy10 Fab variant immobilised on streptavidin biosensors (rehydrated in PBS with 0.1% wt/vol BSA); soluble monomeric lysozyme antigen as analyte at a range of concentrations; global fit, 1:1 Fab-lysozyme interaction
Conditions: both partners purified

Ka [M⁻¹]	Kd [nM]	Binder
5.8e+06	172	Hy10 Fab L4F/Y33H (Fab, V domains shown, as the heavy chain of Dm5 with the stated changes; as the light chain of Dm5; source: Expi293, transient (pCEP4), purified (Talon resin, gel filtration)) VH: DVQFQESGPSLVKPSQTLSLTCSVTGDSITSDHWSWIRKFPGNRLEYMGYVSYSGSTYYNPSLKSRISITRDTSKNQYYLDLNSVTTEDTATYYCANWDGDYWGQGTLVTVSA VL: DIVLTQSPATLSVTPGNSVSLSCRASQSIGNNLHWYQQKSHESPRLLIKYASQSISGIPSRFSGSGSGTDFTLSINSVETEDFGMYFCQQSNSWPYTFGGGTKLEIK
9.6e+06	104	Hy10 Fab S31N (Fab, V domains shown, as the heavy chain of Dm5 with the stated changes; as the light chain of Dm5; source: Expi293, transient (pCEP4), purified (Talon resin, gel filtration)) VH: DVQLQESGPSLVKPSQTLSLTCSVTGDSITNDYWSWIRKFPGNRLEYMGYVSYSGSTYYNPSLKSRISITRDTSKNQYYLDLNSVTTEDTATYYCANWDGDYWGQGTLVTVSA VL: DIVLTQSPATLSVTPGNSVSLSCRASQSIGNNLHWYQQKSHESPRLLIKYASQSISGIPSRFSGSGSGTDFTLSINSVETEDFGMYFCQQSNSWPYTFGGGTKLEIK
1.73e+08	5.79	Hy10 Fab I29F/S52T (Fab, V domains shown, as the heavy chain of Dm5 with the stated changes; as the light chain of Dm5; source: Expi293, transient (pCEP4), purified (Talon resin, gel filtration)) VH: DVQLQESGPSLVKPSQTLSLTCSVTGDSFTSDYWSWIRKFPGNRLEYMGYVTYSGSTYYNPSLKSRISITRDTSKNQYYLDLNSVTTEDTATYYCANWDGDYWGQGTLVTVSA VL: DIVLTQSPATLSVTPGNSVSLSCRASQSIGNNLHWYQQKSHESPRLLIKYASQSISGIPSRFSGSGSGTDFTLSINSVETEDFGMYFCQQSNSWPYTFGGGTKLEIK
6.37e+07	15.7	Hy10 Fab I29F (Fab, V domains shown, as the heavy chain of Dm5 with the stated changes; as the light chain of Dm5; source: Expi293, transient (pCEP4), purified (Talon resin, gel filtration)) VH: DVQLQESGPSLVKPSQTLSLTCSVTGDSFTSDYWSWIRKFPGNRLEYMGYVSYSGSTYYNPSLKSRISITRDTSKNQYYLDLNSVTTEDTATYYCANWDGDYWGQGTLVTVSA VL: DIVLTQSPATLSVTPGNSVSLSCRASQSIGNNLHWYQQKSHESPRLLIKYASQSISGIPSRFSGSGSGTDFTLSINSVETEDFGMYFCQQSNSWPYTFGGGTKLEIK
5.92e+08	1.69	Hy10 Fab I29F/S52T/Y58F (Fab, V domains shown, as the heavy chain of Dm5 with the stated changes; as the light chain of Dm5; source: Expi293, transient (pCEP4), purified (Talon resin, gel filtration)) VH: DVQLQESGPSLVKPSQTLSLTCSVTGDSFTSDYWSWIRKFPGNRLEYMGYVTYSGSTFYNPSLKSRISITRDTSKNQYYLDLNSVTTEDTATYYCANWDGDYWGQGTLVTVSA VL: DIVLTQSPATLSVTPGNSVSLSCRASQSIGNNLHWYQQKSHESPRLLIKYASQSISGIPSRFSGSGSGTDFTLSINSVETEDFGMYFCQQSNSWPYTFGGGTKLEIK
7.51e+09	0.133	Hy10 Fab I29F/S52T/Y53F/Y58F (Fab, V domains shown, as the heavy chain of Dm5 with the stated changes; as the light chain of Dm5; source: Expi293, transient (pCEP4), purified (Talon resin, gel filtration)) VH: DVQLQESGPSLVKPSQTLSLTCSVTGDSFTSDYWSWIRKFPGNRLEYMGYVTFSGSTFYNPSLKSRISITRDTSKNQYYLDLNSVTTEDTATYYCANWDGDYWGQGTLVTVSA VL: DIVLTQSPATLSVTPGNSVSLSCRASQSIGNNLHWYQQKSHESPRLLIKYASQSISGIPSRFSGSGSGTDFTLSINSVETEDFGMYFCQQSNSWPYTFGGGTKLEIK
3.73e+07	26.8	Hy10 Fab Y53F/S56R (Fab, V domains shown, as the heavy chain of Dm5 with the stated changes; as the light chain of Dm5; source: Expi293, transient (pCEP4), purified (Talon resin, gel filtration)) VH: DVQLQESGPSLVKPSQTLSLTCSVTGDSITSDYWSWIRKFPGNRLEYMGYVSFSGRTYYNPSLKSRISITRDTSKNQYYLDLNSVTTEDTATYYCANWDGDYWGQGTLVTVSA VL: DIVLTQSPATLSVTPGNSVSLSCRASQSIGNNLHWYQQKSHESPRLLIKYASQSISGIPSRFSGSGSGTDFTLSINSVETEDFGMYFCQQSNSWPYTFGGGTKLEIK
3.25e+06	308	Hy10 Fab L4F (Fab, V domains shown, as the heavy chain of Dm5 with the stated changes; as the light chain of Dm5; source: Expi293, transient (pCEP4), purified (Talon resin, gel filtration)) VH: DVQFQESGPSLVKPSQTLSLTCSVTGDSITSDYWSWIRKFPGNRLEYMGYVSYSGSTYYNPSLKSRISITRDTSKNQYYLDLNSVTTEDTATYYCANWDGDYWGQGTLVTVSA VL: DIVLTQSPATLSVTPGNSVSLSCRASQSIGNNLHWYQQKSHESPRLLIKYASQSISGIPSRFSGSGSGTDFTLSINSVETEDFGMYFCQQSNSWPYTFGGGTKLEIK
2.98e+07	33.5	Hy10 Fab S52T (Fab, V domains shown, as the heavy chain of Dm5 with the stated changes; as the light chain of Dm5; source: Expi293, transient (pCEP4), purified (Talon resin, gel filtration)) VH: DVQLQESGPSLVKPSQTLSLTCSVTGDSITSDYWSWIRKFPGNRLEYMGYVTYSGSTYYNPSLKSRISITRDTSKNQYYLDLNSVTTEDTATYYCANWDGDYWGQGTLVTVSA VL: DIVLTQSPATLSVTPGNSVSLSCRASQSIGNNLHWYQQKSHESPRLLIKYASQSISGIPSRFSGSGSGTDFTLSINSVETEDFGMYFCQQSNSWPYTFGGGTKLEIK
2.81e+08	3.56	Hy10 Fab S52T/Y53F (Fab, V domains shown, as the heavy chain of Dm5 with the stated changes; as the light chain of Dm5; source: Expi293, transient (pCEP4), purified (Talon resin, gel filtration)) VH: DVQLQESGPSLVKPSQTLSLTCSVTGDSITSDYWSWIRKFPGNRLEYMGYVTFSGSTYYNPSLKSRISITRDTSKNQYYLDLNSVTTEDTATYYCANWDGDYWGQGTLVTVSA VL: DIVLTQSPATLSVTPGNSVSLSCRASQSIGNNLHWYQQKSHESPRLLIKYASQSISGIPSRFSGSGSGTDFTLSINSVETEDFGMYFCQQSNSWPYTFGGGTKLEIK
1.99e+09	0.502	Hy10 Fab S52T/Y53F/Y58F (Fab, V domains shown, as the heavy chain of Dm5 with the stated changes; as the light chain of Dm5; source: Expi293, transient (pCEP4), purified (Talon resin, gel filtration)) VH: DVQLQESGPSLVKPSQTLSLTCSVTGDSITSDYWSWIRKFPGNRLEYMGYVTFSGSTFYNPSLKSRISITRDTSKNQYYLDLNSVTTEDTATYYCANWDGDYWGQGTLVTVSA VL: DIVLTQSPATLSVTPGNSVSLSCRASQSIGNNLHWYQQKSHESPRLLIKYASQSISGIPSRFSGSGSGTDFTLSINSVETEDFGMYFCQQSNSWPYTFGGGTKLEIK

— article PMC7486785 (Proceedings of the National Academy of Sciences of the …, 2020)
